According to patent US11013783B2, “Anti-inflammatory peptides and methods for treating inflammatory diseases” (INSTITUT NATIONAL DE LA RECHERCHE AGRONOMIQUE (INRA), priority 2012, dated 2021):
Where a chain is given by its changes, count along the chain named.

Assays:
[1] = system: IL-8 production by HT29-MTX cells stimulated by TNFα; assay: IL-8 production of HT29-MTX cells incubated with peptides and stimulated by TNFα; format: cell-based; settings: FIG. 4
Experimental: The inventors then incubated mucus secreting intestinal epithelial HT29-MTX cells with two peptide fragments obtained from the protein ZP05614546.1.
The inventors measured the IL-8 production (as a marker of inflammation) after stimulation of HT29-MTX cells incubated or not with said peptides and stimulated by TNFα.

NFκB signaling pathway = assay: NFκB luciferase reporter system in HEK 293T cells transfected with pCMV plasmids (Carma-1-dependent activation); format: cell-based, human; settings: for NFκB signaling pathway inhibition (%): HEK 293T NFκB reporter, proteins cloned in 3× Flag (C-term) pCMV vector, table I
From the text: In order to further analyze the activity of the polypeptides of the invention, the inventors decided to transfect the protein-coding cDNA directly into mammalian epithelial cell model.
The sequence of the protein ZP05614546.1 (SEQ ID NO: 2) has been cloned in 3× Flag (C-term) pCMV vector.
In order to test the NFκB signaling pathway inhibiting activity from the orthologs of ZP05614546.1, the other protein sequences from FIG. 3 were also cloned in 3× Flag (C-term) pCMV vector and tested in the NFκB reporter system in human epithelial cells HEK 293T.
So as to better quantify the anti-inflammatory properties of ZP05614546.1 and orthologs, increasing quantity of pCMV plasmid (i.e. 50, 25 and 12.5 ng) containing SEQ ID NO: 2 and SEQ ID NO: 4 were used to transfected HEK293 cell line. Then, the evolution of NFκB signaling pathway expression was determined as previously. […] Accordingly, the SEQ ID NO: 4 from the strain M21/2 is 100% (2 fold) more efficient in inhibiting NFκB signaling pathway than the protein ZP05614546.1.
In order to further analyze the activity of the polypeptides of the invention, the inventors decided to clone into the previously described pCMV plasmid, the sequences corresponding to amino acids 23-135 of SEQ ID NO: 2 (Mut 1), 1-39/72-135 of SEQ ID NO: 2 (Mut 2), 1-99 of SEQ ID NO: 2 (Mut 3), 35-77 of SEQ ID NO: 2 (p35-′7′7) and . . . - . . . of SEQ ID NO: 2 from MAM from F. prausnitzii strain A2-165. The four constructs, Mut 1, Mut 3, p35-77 and p49-70 carry the peptide 1-5.

colonic inflammation = assay: Colonic inflammation model in mice treated daily orally with L. lactis expressing the protein; format: in vivo, C57B16 mice; settings: M21/2 data not shown
Experimental: C57B16 mice (6-8 weeks old) are kept at room temperature, under 12 h light/dark cycles and having free access to food and water, except the day before the induction of colitis, where they are fasted for 12 h.
Colonic inflammation is induced by treatments with Dextran Sodium Sulfate […]. In details, DSS is dissolved in drinking water (3 or 5% wt/vol) and the animals are free to drink this solution for 7-days. Water consumption is measured in the DSS-treated groups and compared to groups of naïve mice drinking water: no difference is observed for the volume of liquid consumed, between water and DSS-drinking mice. Mice are treated daily orally, with 200 μL of 1 to 5.10^9 colony forming units (cfu) of strains to be tested or bacterial milieu alone—i.e. L. lactis expressing the protein ZP 05614546.1 (Accession number changed to WP_005932151), its ortholog of strain M21/2 (SEQ ID NO: 4) or no protein-. […] Body weight and survival rate are measured daily after the induction of colitis (or right after the first gavage, in case of preventive treatment). DAI (disease activity index is also measured):
On day 7 after adding DSS to their drinking water, mice are sacrificed and colons are harvested for measure of several parameters of inflammation: bowel thickness and length, myeloperoxydase (MPO) activity, cytokine expression (IL-17A, IFN-γ, IL10, IL12p70 or other cytokines) can be measured. […]

[2] = system: LPS-dependent NFκB activation; assay: LPS-dependent NFκB activation in HEK293T cells stably expressing TLR4, MD2 and CD14, NFκB luciferase reporter; format: cell-based; settings: FIG. 2

With “VKGNPIEKNNFGDYAMNALGIAAAVYNLGVAPTKNTVKETEVKFTV (VKGNPIEKNNFGDYAMNALGIAAAVYNLGVAPTKNTVKETEVKFTV; listed as Faecalibacterium prausnitzii) [SEQ ID NO: 48, peptide fragment of ZP05614546.1, region between positions 90 and 135]” the “anti-inflammatory effect (IL-8 production as a marker of inflammation)” value [1] was “anti-inflammatory effect in a dose dependent manner”.

“K G N T F L Q S T I N R T I G V L (KGNTFLQSTINRTIGVL; listed as Faecalibacterium prausnitzii) [SEQ ID NO: 47, peptide fragment of ZP05614546.1, region between positions 53 and 68]” was tested, and the “anti-inflammatory effect (IL-8 production as a marker of inflammation)” value [1] was “anti-inflammatory effect in a dose dependent manner”.

B1: L2-62: ortholog of ZP05614546.1 from strain L2-62 (protein, listed as Faecalibacterium prausnitzii)
chain: MMMPANFSAVNAEVVYGGAVADYLPSAWTAESVKRFNSNIITLVSNSFTSHLLKATLGTMFSGSWGSDGVTLFGDNGTFSGLYNVNRLPGGEAQTFGNKIMTTLGLASVVYTLGMKDAAVLTAKKVTNSNGQVWGDLPNNGGSGWVG
With B1 the “NFκB signaling pathway inhibition (%)” value (NFκB signaling pathway) was 34 ± 5%.

B2: M21/2: ortholog of ZP05614546.1 from strain M21/2 (protein, listed as Faecalibacterium prausnitzii)
chain: MMMPANFSAVSENEMTYVMGGSVADYLAPAMGAAQWQNFHKNLITIVGNKYVQGFLDNTVGAMFSGTWTPGDGLTGFGGQFSTIWKKNYTDNVTDESTGAQKFGYGALGVVNSILNVAGNLAAIYNLGFGTAKNIVGEGVYKA
With B2 the “efficiency in inhibiting NFκB signaling pathway relative to protein ZP05614546.1” value (NFκB signaling pathway; 50, 25 and 12.5 ng pCMV plasmid, Carma-1-dependant NF-kB activation, HEK293T, FIG. 9) was 2 fold, the “NFκB signaling pathway inhibition (%)” value (NFκB signaling pathway) was 90 ± 3% and the “reduction of colonic inflammation” value (colonic inflammation) was “upper than the one observed with ZP 05614546.1 protein”.

B3: CNCM4573: ortholog of ZP05614546.1 from strain CNCM-4573 (protein, listed as Faecalibacterium prausnitzii)
chain: B2 chain with V23I, I44V, M63V, D72V
In the case of B3, the “NFκB signaling pathway inhibition (%)” value (NFκB signaling pathway) is reported as 89 ± 2%.

B4: SL3/3: ortholog of ZP05614546.1 from strain SL3/3 (protein, listed as Faecalibacterium prausnitzii)
chain: B2 chain with M63V, T83K, K87D, D95G
For B4, the “NFκB signaling pathway inhibition (%)” value (NFκB signaling pathway) was 86 ± 5%.

B5: ZP05614546.1: conserved hypothetical protein of F. prausnitzii strain A2-165 (protein, listed as Faecalibacterium prausnitzii)
chain: MMMPANYSVIAENEMTYVNGGANFIDAIGAVTAPIWTLDNVKTFNTNIVTLVGNTFLQSTINRTIGVLFSGNTTWKEVGNIGKNLFGTNVKGNPIEKNNFGDYAMNALGIAAAVYNLGVAPTKNTVKETEVKFTV
In the case of B5, the “NFκB signaling pathway inhibition (%)” value (NFκB signaling pathway) is reported as 58 ± 6%, the “inhibition of Carma-1-dependent NFκB activation” value (NFκB signaling pathway; HEK293T cells, NFκB luciferase reporter, FIG. 1) is reported as “inhibits Carma-1-dependent NFκB activation” and the “inhibition of NFκB signaling pathway” value (NFκB signaling pathway; NFκB reporter system in human epithelial cells HEK 293T, protein cDNA transfected in pCMV vector) is reported as “inhibits the NFκB signaling pathway in a dose-dependent manner”. The “inhibition of LPS-dependent NFκB activation” value [2] was “inhibits the LPS-dependent NFκB activation” and the “reduction of colonic inflammation” value (colonic inflammation) was “significantly reduce colonic inflammation”.

B6: KLE1255: ortholog of ZP05614546.1 from strain KLE1255 (protein, listed as Faecalibacterium prausnitzii)
chain: MMMPANFSAVAENEMTYVVGGSLVDVLAPAMTTANWQNVSANVIKIVGNSFLAKYTNDVLAQLFDGNYVPGDVIGYSVKNLDKAYNKGYGTFGGNWGFAVGALNAGMQILGGLSAIYTLGSSSIGLETKSGTLPTL
For B6, the “NFκB signaling pathway inhibition (%)” value (NFκB signaling pathway) was 72 ± 1%.
